Laboratory results taken from the supplement of paper PMC10126150.
± gives the standard deviation of the averaged measurements.

Tested on: ATP
Test: switch fluorescence ratio, 500 uM ATP over buffer (Cy3 cluster intensity, sum of 5 cycles each) (fold (ratio)); higher = stronger signal-on switching upon ATP binding; sequences stand for … in TCGTCGGCAGCGTCAGATGTGTATAAGAGACAGTTTTTTTTTTTTTTTTTTTTTTTTT…TC
Details: aptamer strand: ATP DNA aptamer (quencher-CACCTGGGGGAGTATTGCGGAGGAAGG + anchor), 100 nM annealed; ATP concentration: 500 uM
In short: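 Imaging in selection buffer was followed by imaging after 15 min with 500 uM ATP at 22 °C, for Cy3-labelled switching-strand clusters annealed to 100 nM quencher-labelled ATP aptamer on a modified Illumina MiSeq flow-cell. Five of these buffer/ATP cycles ran, separated by NaOH stripping and re-annealing. The fluorescence ratio per cluster is summed target-cycle over summed buffer-cycle Cy3 intensity, averaged per switch-domain sequence; clusters outside 100-1000 RFU were removed.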
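Also: ATP exposure 15 min at 22 °C before imaging.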

| Sequence | switch fluorescence ratio |
| --- | --- |
| TCAGGGGTTC | 0.9918 ± 0.0084 |
| CAGGTAGGTA | 0.977 ± 0.014 |
| ACTTGCACTT | 1.22 ± 0.038 |
| TAACAGAAGA | 0.991 ± 0.017 |
| ACTGCCGTAT | 1.01 ± 0.036 |
| TTGGTGGCGT | 0.995 ± 0.01 |
| CAGGGGGGAT | 1.04 ± 0.067 |
| TTTACATTAT | 0.981 ± 0.058 |
| TTATTTGCTG | 1.02 ± 0.056 |
| CATTGTAAAG | 1.02 ± 0.033 |
| GGGGGTATTG | 0.99 ± 0.041 |
| GCGAAAAGAA | 1.05 ± 0.054 |
| TACGATGCTT | 1.2 ± 0.028 |
| GAGGTTAGCT | 0.976 ± 0.046 |
| TTGGTCTTTT | 0.976 ± 0.012 |
| GAGGGATTTT | 1.02 ± 0.017 |
| ACTCCTAACC | 1.26 ± 0.047 |
| TGGTTCTTAA | 1.01 ± 0.041 |
| GTTCGTTTTG | 0.975 ± 0.035 |
| GCAGTCATTA | 1.037 ± 0.0019 |
| TTCAACTTAT | 0.954 ± 0.049 |
| ACAAAAGGGG | 1.16 ± 0.22 |
| TATTAAGGTT | 0.978 ± 0.021 |
| TTGAAGGAGA | 1.01 ± 0.021 |
| AAAGATAATT | 0.982 ± 0.018 |

| Sequence | switch fluorescence ratio |
| --- | --- |
| ATCCCTTGAG | 0.992 ± 0.032 |
| TTTACAGTC | 1.01 ± 0.037 |
| TTTTTGCGGC | 0.999 ± 0.03 |
| GCGGAATGGA | 1.02 ± 0.013 |
| AAAAGTTTGG | 1 ± 0.015 |
| CCTACGGTGG | 1.04 ± 0.04 |
| GCTTCCTGTG | 1.49 ± 0.036 |
| TATTATATTT | 1 ± 0.0046 |
| TGTGGGAAGG | 1.05 ± 0.074 |
| CGAAAGTTTA | 1.008 ± 0.0021 |
| GGGTATGTGT | 0.986 ± 0.015 |
| CGTAGGGGGT | 1.01 ± 0.03 |
| GTTTGTACTC | 0.997 ± 0.037 |
| TGGGGATAGC | 1.02 ± 0.053 |
| CGGCTGTACG | 1.07 ± 0.022 |
| ATAAAGGGGA | 0.984 ± 0.038 |
| AGAGTTATTG | 0.998 ± 0.018 |
| CTGTCGTGTC | 0.9934 ± 0.003 |
| TAGGGAATTA | 1.01 ± 0.012 |
| CAGTGTTAGG | 1 ± 0.034 |
| GGACGAGGTG | 0.9756 ± 0.0049 |
| TTAAGCTGTT | 1.01 ± 0.023 |
| ACATGCGGTG | 1.002 ± 0.0033 |
| GTAGTAAAAC | 1.69 ± 0.087 |
| GCAGGGACAA | 1.01 ± 0.018 |

| Sequence | switch fluorescence ratio |
| --- | --- |
| AGAAATAGGA | 1.01 ± 0.035 |
| ATAGGGGATT | 1 ± 0.038 |
| GAGTTGAGTT | 1.01 ± 0.074 |
| CTAACATGTG | 0.998 ± 0.03 |
| GGGGTGATCC | 1.01 ± 0.012 |
| GAGATTTGAC | 1.01 ± 0.025 |
| TTCTTTTTAG | 0.9793 ± 0.0051 |
| CGACGTGTGG | 1.02 ± 0.03 |
| TTTAGGGGAA | 1.02 ± 0.003 |
| ATTATTAATT | 0.973 ± 0.022 |
| TTAGATATGG | 1.02 ± 0.026 |
| GAAGTTTTGT | 1.016 ± 0.0088 |
| TAAGCGTCTG | 1.013 ± 0.0057 |
| TATGGCGGTG | 0.989 ± 0.021 |
| TAAGATGTTG | 1.01 ± 0.019 |
| ACCTATCTTG | 1.03 ± 0.016 |
| TATCGTATTC | 0.97 ± 0.037 |
| AGGGTGTTTT | 1.01 ± 0.028 |
| AAATAATTTA | 0.955 ± 0.038 |
| GTTGTCAGGG | 0.982 ± 0.012 |
| TAAAAGATAG | 1 ± 0.019 |
| ACCGTGATGT | 1.08 ± 0.024 |
| CACCCTTTGT | 0.9912 ± 0.0036 |
| AGCTACCTTA | 1.09 ± 0.05 |
| GGGTATAGGC | 0.981 ± 0.046 |

| Sequence | switch fluorescence ratio |
| --- | --- |
| GAGGCGTCAA | 0.997 ± 0.027 |
| ATCGCGGGCC | 1.03 ± 0.036 |
| TTACAGCATT | 1.07 ± 0.067 |
| TTGATGCGGT | 1.04 ± 0.042 |
| GACGAGGG | 1.03 ± 0.038 |
| TAGCGGGCGT | 0.964 ± 0.026 |
| AAATGAAAGT | 0.995 ± 0.015 |
| AACGTAGGTA | 1.038 ± 0.0051 |
| CCGTATGTTT | 1.11 ± 0.091 |
| GGATTTACGG | 1.001 ± 0.0028 |
| ATCAATTTAA | 0.976 ± 0.039 |
| GGTCTAGATT | 0.988 ± 0.013 |
| AGTTTAGATG | 0.968 ± 0.02 |
| GGGAGGTTCT | 0.974 ± 0.033 |
| GGGTCCATTT | 1.01 ± 0.037 |
| TTCCACGTAT | 1.18 ± 0.046 |
| TTTTCGCCAC | 2.35 ± 1.3 |
| AGGTGATATG | 1.0171 ± 0.00075 |
| GTGTGAGGGC | 0.948 ± 0.035 |
| GGGGGACCGG | 1.01 ± 0.072 |
| TATATGATGC | 0.984 ± 0.029 |
| TCGTCGTAGC | 1.05 ± 0.072 |
| CACCACGGCA | 1.1 ± 0.045 |
| ACGTTATGTT | 1.1 ± 0.035 |
| TCGGTGGAGA | 1.01 ± 0.024 |

| Sequence | switch fluorescence ratio |
| --- | --- |
| TCAAAAGTCG | 1.03 ± 0.012 |
| AAAAAATGCC | 1.07 ± 0.091 |
| AATCCCGCCA | 1.19 ± 0.034 |
| GCTAGTGGC | 0.985 ± 0.079 |
| AGGGAGTTAT | 1 ± 0.0014 |
| ATATGGCACG | 1.032 ± 0.0014 |
| CAGCGAAGAG | 1.01 ± 0.0025 |
| AGGGTGAATA | 1.005 ± 0.0027 |
| GCTGGGGGGG | 1.02 ± 0.037 |
| AATTTAAGCG | 1.01 ± 0.017 |
| GGAGATATGT | 0.987 ± 0.026 |
| GGCCGGCGTG | 0.969 ± 0.031 |
| ACCATTAATT | 0.991 ± 0.029 |
| GTTTGGTATT | 1.01 ± 0.04 |
| TGCTGAGGGC | 1.01 ± 0.013 |
| GAAGTAATAG | 4.39 ± 0.18 |
| ATGGGGGATA | 0.973 ± 0.041 |
| TTTGCAGGGT | 1.03 ± 0.025 |
| GGTATATTGG | 1.01 ± 0.012 |
| CCTATGTGCT | 1.038 ± 0.0059 |
| GAACGTCTGC | 1.08 ± 0.011 |
| GTTTTTTAGA | 0.9728 ± 0.0018 |
| AGGCGAGGGG | 0.988 ± 0.032 |
| GTAATGGGGT | 0.966 ± 0.029 |
| TCTTGAGGGG | 0.982 ± 0.034 |

| Sequence | switch fluorescence ratio |
| --- | --- |
| GTTGTTTTGT | 0.985 ± 0.021 |
| GGGAATCATG | 0.971 ± 0.044 |
| TTTAGAGGGA | 1.02 ± 0.019 |
| GCAAAAGAGA | 0.994 ± 0.032 |
| CGGGAGCG | 1.03 ± 0.022 |
| TACTCTAAAA | 1.08 ± 0.022 |
| ATTGGGAGGT | 0.972 ± 0.033 |
| TTTTGTATCG | 0.948 ± 0.052 |
| TGGGAAGGGG | 0.998 ± 0.013 |
| TGGACGCGCT | 1.01 ± 0.025 |
| TTTTTTCCCA | 1.01 ± 0.011 |
| AAAGTGGCCC | 0.997 ± 0.018 |
| AAGTTGGGGC | 0.989 ± 0.032 |
| AGGGGGACAG | 0.9761 ± 0.0039 |
| GTTGGCTTTC | 1.019 ± 0.0077 |
| TATAGAAGGG | 1 ± 0.053 |
| TATAAGAAGC | 0.993 ± 0.021 |
| TTAAGTACG | 1.22 ± 0.09 |
| TTAACGGGTT | 1.02 ± 0.037 |
| ACGATCAGCA | 1.05 ± 0.047 |
| TCGGGGCAG | 0.976 ± 0.033 |
| AACATACAGG | 1.28 ± 0.019 |
| AAATCCCGCT | 1.0834 ± 0.00016 |
| TACTTTAATT | 1.04 ± 0.014 |
| AATGTCGCGA | 1 ± 0.025 |

| Sequence | switch fluorescence ratio |
| --- | --- |
| ATGGGGATAC | 1.06 ± 0.026 |
| CAGCTTGGGT | 0.999 ± 0.04 |
| CCTGTTTCTA | 1.17 ± 0.23 |
| GGTTCAGGGA | 0.977 ± 0.0099 |
| AATTGCCAGT | 1.01 ± 0.018 |
| GCTGGAAAAT | 1 ± 0.013 |
| TTTAATGTGG | 0.999 ± 0.03 |
| TTGTTCGGTT | 0.998 ± 0.024 |
| ATCAATTGGT | 1.013 ± 0.0052 |
| TGCATTTATG | 1.02 ± 0.043 |
| AGTCTCAGGC | 1 ± 0.032 |
| TATTAAGAGG | 0.98 ± 0.018 |
| GTAATCGGCA | 1.02 ± 0.022 |
| TAGGTGGAAA | 0.992 ± 0.042 |
| TTGTTAGTCA | 1.0317 ± 4.4e-05 |
| CTGGGGGTTG | 0.989 ± 0.044 |
| GGGTGGTGTG | 0.99 ± 0.068 |
| TGGGAAGTGG | 1.04 ± 0.071 |
| ATTATCGCGC | 0.983 ± 0.031 |
| TCATTAATAG | 0.996 ± 0.012 |
| CTCAGGGCCG | 1.05 ± 0.11 |
| GGTATGGACA | 0.997 ± 0.013 |
| TGGAAGGGGA | 1 ± 0.013 |
| TTTCGGTCGG | 1.04 ± 0.046 |
| CCGAGTATGT | 1.19 ± 0.034 |

| Sequence | switch fluorescence ratio |
| --- | --- |
| TCGCGGAGTT | 1 ± 0.011 |
| TTACGGTTGG | 0.995 ± 0.025 |
| GGAATCCATG | 0.977 ± 0.0013 |
| TAAGAATGTT | 0.977 ± 0.0098 |
| ATGGGCTGG | 0.975 ± 0.031 |
| AGAGTAAAGT | 0.98 ± 0.015 |
| TTTTGTGGGA | 1.01 ± 0.031 |
| GAGCCGGAGC | 0.993 ± 0.012 |
| ATATTGGGTA | 0.997 ± 0.022 |
| ATTTTAACT | 0.988 ± 0.013 |
| AGTGCGAGAG | 1.01 ± 0.029 |
| ATGGAGGGCA | 1.03 ± 0.049 |
| ATTCGGGGCT | 1 ± 0.038 |
| AGCGGATTCG | 0.969 ± 0.053 |
| TGAGCGTCGG | 0.968 ± 0.051 |
| TACAGGGGGG | 1 ± 0.027 |
| ATGAATTTGT | 1.01 ± 0.032 |
| CGTTTAGATA | 1 ± 0.042 |
| TGGATCCCCA | 1.06 ± 0.091 |
| ACGGTTTTTC | 1.0014 ± 0.0005 |
| TATGAATCAG | 0.998 ± 0.019 |
| TGGGTTGGCA | 0.987 ± 0.029 |
| GGGACATTCA | 1.03 ± 0.023 |
| CGTTCTTGTT | 0.976 ± 0.032 |
| TCACTGTCGC | 1.13 ± 0.07 |
